Experiments:
[1] = tested on: fluorenyl-9-methoxycarbonyl (Fmoc)-SSFYSGGGC-CONH2
[2] = tested on: T1, Fmoc-Gly-Phe-Cys-NH2 (peptide 1)
T1 sequence: GFC

| Substance | dispersion of the aggregate (percentage change in intensity against time) [1] | disassembly of nanoparticle aggregate [2] |
| --- | --- | --- |
| Prostate Specific Antigen (PSA) | Discrimination of PSA concentration is seen after 5 min | – |
| trypsin | – | 8.5 nm gold particles functionalised with Fmoc-Gly-Phe-Cys-NH2 did not disassemble upon introduction of trypsin |
